Results on 30 sequences are retold here after the nanobody polyreactivity screen of Harvey et al. (2022).

A short description of this data set: yeast display, Sf9 membrane polyspecificity reagent, FACS + sequencing; frameworks hold sequencing errors. In short, it runs like this:
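A synthetic nanobody library was expressed on Saccharomyces cerevisiae BJ5465 by galactose induction for 36–48 hours. The library was stained for 1 hour at 4 °C with 10% biotinylated, detergent-solubilized Sf9 membrane reagent and enriched with streptavidin microbeads before FACS. Low and high (top ~1%) gates were set on anti-HA fluorescence for expression and streptavidin fluorescence for reagent binding, and each polyreactivity label reflects the gate of origin.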
In the case of “QVQLGESGGGLVQAGGSLRLSCAASGRIFAGYAMGWYRQAPGKERELVATISSGGSTYYADSVKGRFTISRDNAKNTVYLQMHSLKPEDTAVYYCAAEYATRQYSSYYNLFNYCGQGTQVTVSS”, the “polyreactivity (PSR sort gate)” value is “low polyreactivity”.

For “QVQLGESGGGLVQAGGSLRLSCAASGRIFAWNAMGWYRQAPGKERELVAAITYNGGSTYYADSVKGRFTISRDNAKNTVYLQMNSLKPEDTAVYYCNKVTRSPAQGYGYWGQGTQVTVSS”, the “polyreactivity (PSR sort gate)” value is recorded as “high polyreactivity”.

In the case of “QVQLGESGGGLVQAGGSLRLSCAASGRIFQIYGMGWYRQAPGKERELVASISSGDSTNFADSVKGRFTISRDNAKNTVYLQMNSLIPEDTAVYYCAARSRRAYNYWGQGTQVTVSS”, the “polyreactivity (PSR sort gate)” value is “high polyreactivity”. As for “QVQLGESGGGLVQAGGSLRLSCAASGRIFYLNVMGWYRQAPGKERELVAAITRRDVTTYADSVKGRFTISRDNAKNTVYLQMNSLKPEDTAVYYCNAVYYNWIGFDYWGQGTQVTVSS”, the “polyreactivity (PSR sort gate)” value is reported as “low polyreactivity”. Consider “QVQLGESGGGLVQAGGSLRLSCAASGRIYAAYAMGWSRQAPGKERELVAAISGSGGSTSYADSVKGRFTISRDNAKNTVYLQMNSLKPEYTAVYYCAADYSYLAEFDYWGQGTQVTVSS”, for which the “polyreactivity (PSR sort gate)” value is “low polyreactivity”. Take “QVQLGESGGGLVQAGGSLRLSCAASGRNFENNAMGWYRQAPGKERELVASIRGGGSTNYADSVKGRFTISRDNAKNTVYVQMNSLKPEDTAVYYCNADYWWSYVRFDYWGQGTQVTVSS”: the “polyreactivity (PSR sort gate)” value was “low polyreactivity”. Take “QVQLGESGGGLVQAGGSLRLSCAASGRTFDYYAMGWYRQAPGKEWQLVAAISGSGGTTYYADSVKGRFTISRENAKNTVYLQMNSLKAEDTAVYNCDTVRSRLFGQYYYWGQCTQVTVSS”: the “polyreactivity (PSR sort gate)” value was “high polyreactivity”.

For “QVQLGESGGGLVQAGGSLRLSCAASGRTFPYNAMGWYRQAPGKERELVAAISSGGSTNYADSVKGRFTISRDNAKNTVYLQMNSLKQEDTAVYYCAVTGWPRYTWYSYGYWGQGTQVTLSS”, the “polyreactivity (PSR sort gate)” value was “low polyreactivity”.

Turning to “QVQLGESGGGLVQAGGSLRLSCAASGSIFRYYAMGLYRQAPGKERELVAAISGSGGITRYADSVKGRFTISRDNAKNTVYLLMNSLKPEDTAVYYCATRPGTRPAYDYWGQGTQVTVSS”, the “polyreactivity (PSR sort gate)” value is listed as “high polyreactivity”. As to “QVQLGESGGGLVQAGGSLRLSCAASGSIFSRYTMGWYREAPGKERELVAAITSSGGRTYYADSVKGRFTISRDNAKNTVYLQMNRLKAEDTAVYYCAARYFSSFPLYYYWGQGTQVTVSS”, the “polyreactivity (PSR sort gate)” value was “high polyreactivity”. As for “QVQLGESGGGLVQAGGSLRLSCAASGSIFWLYAMGWYRQAPGKERELVAAIDSGDSRKYADSVKGRFTISRDNAKNTVYLQMNSLTPEDTAVYYCNASRRYHVRAPYDYWGQGTLVTVSS”, the “polyreactivity (PSR sort gate)” value was “low polyreactivity”. Consider “QVQLGESGGGLVQAGGSLRLSCAASGSILRTYTMGWYRPAPGKERELVAAISSSGGRTYYADSVKGRFTISRDNAKNTVYLQMNSLKPEDTAVYYCNAGGYRYRSYDYWGQGTQVTVSS”, for which the “polyreactivity (PSR sort gate)” value is listed as “high polyreactivity”. With “QVQLGESGGGLVQAGGSLRLSCAASGSSFWVNAMGWYRQAPGKETELVAAISRGSTYYADSVKGRFTISRDNAKNTVYLQRNSLKPEDTAVYYCNARYLYSHSRYARYHSWGQGTQVTVSS” the entry was “high polyreactivity”. With “QVQLGESGGGLVQAGGSLRLSCAASGSTFARYAMGWYRQAPGKERELVAVIRSGGSRNYADSVKGRFTISRDNAKNTVYLQMNSLKPEDTAGAADQWTIHRWATYGYWGQGTQVTVSS” the entry was “low polyreactivity”; with “QVQLGESGGGLVQAGGSLRLSCAASGSTFKLYAMGWYRQAPGKERELVAAIRGSGGRTYYADSVKGRFTISRDNAKNTVYLQMNSLKPEDTAVYYCAAAYIGVWKYDSWGQGTQVTVSS”, “high polyreactivity”; with “QVQLGESGGGLVQAGGSLRLSCAASGSTFTSYAMGGSRQAPGKERELVAAITHRGSTNYADSVKGRFTISRDNAKYTVDLQMNSLKPEDTAVYYCNARYATSVLYDYWRQGTQVTVSS”, “high polyreactivity”. With “QVQLGESGGGLVQAGGSLRLSCAASGSTFVDNTMGWYRQAPGKERELVAAITRSGGSTYYADSVKGRFTISRDNAKNTVYLQMNSLNPEDTAVYYCATYPYSPYFYVYVEPYVYWGQGTQVTVSS”, the “polyreactivity (PSR sort gate)” value is reported as “low polyreactivity”. To “QVQLGESGGGLVQAGGSLRLSCAASGSTFYRYAMGWYRQAPGKERELVAAITRGGGNTYYADSVKGRFTISRDNAKNTVYLQMNSLKPEDTAVYYCNTDPTLRSRVGIWGFDYWGQGTQVTVSS” belongs “high polyreactivity”; to “QVQLGESGGGLVQAGGSLRLSCAASGYIFRVYAMGWYIQARGKERDFVAAITRGGRTNYADSVKGRFTISRDNAKNTVYLQMNSLKQEDTAVYYCAASFSAIRGGVRVTIDYYWGQGTQVTVSS”, “high polyreactivity”. On to “QVQLGESGGGLVQAGGSLRLSCDASGTSNPYNAMGWYRQAPGKERELVATISTNDGSTYYADSVKGRFTISRDNEKNTVYLQMNSLKPDDTAVYYCASRGFARYWGQRTQVTVSS”, for which the “polyreactivity (PSR sort gate)” value is reported as “low polyreactivity”. As to “QVQLGESGGGLVQAGGTLRLSCAAYGFIFGIYDMGSYRQAPGKERELVAAITWDGDTTYYADSVKGRFTISRDNAKNTVYLQMNSLKPEDTAVFYCAVDDSRAYPRPYHWVEYYYWGQGTQVTVSS”, the “polyreactivity (PSR sort gate)” value is “low polyreactivity”. Regarding “QVQLGESWACIVQAGGSLRLSCAASGIISYLYAMGLYRHAPGKERELVAVIRTSDAITYYADSVKGRFTISRDTAKNTVYLQMNSLKPEDTAFYYCGGRPRYYLYGYDYWGQGTQVTVSS”, the “polyreactivity (PSR sort gate)” value was “high polyreactivity”. With “QVQLGHSGGGLVQAGGSLRLTCAPSGSIFGYKAMGWYRQAPGKERELVAAISSTGGSTYYADSVKGRFTISRDNAKNTVYLQMNSLKPEDTAVYYCAKQVADRYVYWGQGTQVTVSS” the entry was “low polyreactivity”. Consider “QVQLHERGDGLVQAVGSLRLSCAASGYISGYYYMGWYRQATGKERELVAGIDALGSSTNYADCVKGRFTISRDNAKNTVYLQMNSLKPEDTAVYYCAARPDGDRLFSYWGQGTQVTVSS”, for which the “polyreactivity (PSR sort gate)” value was “low polyreactivity”. Consider “QVQLHESGGGLVQAGGSLRLRCAASGTISYAGPMGWYRQAPGKEREFGAGIGVGSNTNYADSVKGRYTIIRDNAKNTVFLQMNSLKPEDTAVYYCAVGGYAPLGRPYWGQGTQVTVSS”, for which the “polyreactivity (PSR sort gate)” value is on record as “low polyreactivity”. As for “QVQLHESGGGLVQAGGSLRLSCAASGTISQEDWMGWYRKAPRKEREFVAAIGLGSNTNYADSLKGRFTISRDNANNTVYLQMNSLKPEDTAVYYCAVSVWQYSDHVYRGQGTQVTVSS”, the “polyreactivity (PSR sort gate)” value is “low polyreactivity”. For the sequence “QVQLHESGGGLVQAGGSLRLSCAASGTISYAGPMGWYRQAPGKEREFVAGIGVGSNTNYADSVKGRYTIIRDNAKNTVYLQMTSLKPEETAVYYCAVGGYAPLGPPYWGQGTQVTVSS”, the “polyreactivity (PSR sort gate)” value is recorded as “low polyreactivity”. Consider “QVQLHESGGGLVQAGGSMRLSCEASGTISYAGTMGWYRQAPGKEREFVAGIGLGSNTNYADSVKGRYTIIRDNEKKSVYLQMNSLKPEDTSLYYFAVGVYDPLGRPYWCQGTQVTVSS”, for which the “polyreactivity (PSR sort gate)” value is recorded as “low polyreactivity”. With “QVQLHESGRGLVQAGGSLRLSCAATATISYAGPMGWYRQAPGKEREFVAGIGVGSNTNYADSVKGRYTIIRDNAKNTVYLQMNSLKPEDTAVYSCAVGGYAPLGRPYWGQGTQVTVSS” the entry was “low polyreactivity”; with “QVQLIESGGGLVQAGGSLRLSCAASGRTFKRYAMGWYRQAPGKERELVARITYSGARTYYADSVKGRFTISRDNAKNTVYLQMNSLKPEDTAVYYCAAQQYWTSQYFRSATFDYWGQGTQVTVSS”, “high polyreactivity”.
